Measurements taken from patent US20220072101A1, “HARNESSING INFLAMMATION TO TREAT NEURODEVELOPMENTAL DISORDERS” (President and Fellows of Harvard College, priority 2019, published 2022).
Entries after “also recorded” stand apart in the source; their conditions may differ. Where a name gives a salt, the structure may show the parent alone.

How the values were obtained:
Assay type in all cases: in vivo, mouse
MIA offspring = test: Three-chamber social approach assay in PBS and MIA offspring; conditions: for sociability phenotype after IL-17a into S1DZ: MIA offspring, IL-17a 50 ng/side bilaterally into S1DZ, 4 hours, no LPS
Description: Adult male mice were assayed for sociability using a three-chamber social approach assay. The arena was constructed of white acrylic (50 cm×35 cm×30 cm). Wire cups (Spectrum Diversified®) were placed in the back left and right corner of the arena beneath water-filled 1 L bottles (Nalgene®). On Day 0, mice were habituated to the arena for 10 min. Immediately following habituation, mice were singly housed. On Day 1 (Pre), mice were placed in the center of the arena and allowed to freely explore. Following 10 min, mice were confined to the center of the arena. An inanimate object (rubber stopper) or a male conspecific were placed beneath the wire cups. Placement of the inanimate object and social target were alternated. Mice were then allowed to freely explore the arena for 10 min. Interaction time was defined as time spent in the areas circumscribing the wire cups (<2 cm). Sociability was defined as interaction time with the social target divided by total interaction time and expressed as a percentage. For experiments involving LPS injections, mice were injected with LPS ([…], i.p., L2630, Sigma) on Day 2 (Test), four hours prior to testing. […]
Adult male mice were implanted with cannula into S1DZ and allowed to recover for >2 weeks prior to behavioral experiments. On Day 1 (Pre) mice were assayed for sociability. On Day 2 (Test), mice were anesthetized briefly using isoflurane and either vehicle or IL-17a (50 ng/side in 1 μl at a rate of 180 nl/min, 7956-ML/CF, R&D®) was administered bilaterally into S1DZ through 250 μm-projecting injector tips (PlasticsOne®). Four hours after vehicle or IL-17a administration, mice were assayed for sociability. Cannula placements were verified using histology.
(§1) Adult male mice were assayed for sociability using a three-chamber social approach assay. The arena was constructed of white acrylic (50 cm×35 cm×30 cm). Wire cups (Spectrum Diversified®) were placed in the back left and right corner of the arena beneath water-filled 1 L bottles (Nalgene®). On day 0, mice were habituated to the arena for 10 min. Immediately following habituation, mice were singly housed. On day 1 (Pre), mice were placed in the center of the arena and allowed to freely explore. Following 10 min, mice were confined to the center of the arena. An inanimate object (rubber stopper) or a male conspecific were placed beneath the wire cups. Placement of the inanimate object and social target were alternated. Mice were then allowed to freely explore the arena for 10 min. Interaction time was defined as time spent in the areas circumscribing the wire cups (<2 cm). Sociability was defined as interaction time with the social target divided by total interaction time and expressed as a percentage. For experiments involving LPS injections, mice were injected with either saline (Veh) or LPS ([…], i.p., L2630, Sigma) on day 2 (Test), four hours prior to testing. For the experiment assaying sociability 72 hrs following LPS injection, mice used for 4 hr LPS sociability experiments were tested for sociability again at 72 hrs.
Adult male Vgat-Cre MIA offspring were bilaterally injected with virus encoding the inhibitory DREADD receptor fused to mCherry into the vLPO. Following >3 weeks of recovery, mice were assayed on the three-chamber social approach assay outlined above. Baseline sociability was assayed on day 1 (Pre). On day 2 and day 3, mice were injected with either Saline (Veh) or CNO (1.5 mg/kg i.p., BML-NS105, Enzo Life Sciences®), two hours prior to initiation of behavior. Injection order was counterbalanced. Following behavioral experiments, post-mortem histology was used to confirm mCherry expression within the vLPO. For experiments assaying the effect of CNO and LPS injection in Vgat-Cre PBS and MIA offspring that have not undergone surgery, baseline sociability was assessed on day 1. On day 2 and 3 mice received counterbalanced injections of CNO or vehicle. On day 4, mice were injected with LPS. […]

IL-17a, IFNγ, IL-6, TNFα = test: ELISA of cytokines in plasma and brain lysate; conditions: LPS-injected MIA offspring; antibiotic by oral gavage
Description: Mice were put under general anesthesia by intraperitoneal injection of Ketamine (100 mg/kg, i.p.) and xylazine (10 mg/kg, i.p.). Blood was collected by retro-orbital puncture, using clean heparinized microhematocrit capillary tubes (Fisher Scientific®). Once the tube was withdrawn, slight pressure was applied on the eyelid with gauze to prevent further bleeding. All blood samples were centrifuged at 15,000 g for 3 min at room temperature. For quantification of cytokines in brain lysate, samples were disrupted in cold lysis buffer with protease inhibitor cocktail for 60 seconds using the Micro-Homogenizer (VWR International) and centrifuged for 30 min at 15,000×g to remove insoluble precipitates. All samples were stored at −80° C. until further analysis. Plasma and brain lysate cytokines concentrations were measured using an ELISA kit (Biolgened™), following the manufacturer's instructions.
After four hours of vehicle or LPS administration, mice were anesthetized by intraperitoneal injection of fatal plus (100 mg/kg). All blood samples were centrifuged at 10,000 g for 10 min at 4 C. All samples were stored at −80° C. until further analysis. Cytokines concentrations in plasma were measured using an ELISA kit (IFN-γ; 430804, TNF-α; 430904, IL-6; 431304, IL-17a; 432504, Biolegend®), following the manufacturer's instructions.

[1] = test system: segmented filamentous bacteria (SFB); test: SFB levels by 16S rRNA qPCR of fecal pellets and SEM of ileum after antibiotics; conditions: Taconic-derived mice; vancomycin 2.5 mg/kg or metronidazole 10 mg/kg orally every two days
Description: For SFB-gavaging experiments, four fecal pellets of SFB mono-colonized mice were dissolved in 20 ml sterile PBS and filtered through a 100-μm cell strainer. 200 μl of fecal suspensions were gavaged via oral route into 8 to 9-week-old male cross-fostered mice. Control mice were gavaged with PBS. The SFB colonization was tested on day 7 following SFB-gavaging. For antibiotics treatments, Taconic-derived male mice were orally gavaged with vancomycin hydrochloride (Fisher) (2.5 mg/kg) or metronidazole (10 mg/kg) (Sigma Aldrich®) every two days, starting 21 days before behavioral test. Mouse fecal pellets were collected and stored at −80° C. before and after vancomycin and metronidazole treatments.
Bacterial genomic DNA was isolated from the fecal pellets of mice with phenol-chloroform extraction. qPCR was performed to quantify relative abundance of segmented filamentous bacteria (SFB). […] Data were analysed using Roche (Lightcylcler^R 96 SW1.1) Software and the relative quantification (fold) of SFB DNA was performed using the ΔΔCt method.
Terminal ileum tissues from mice (8-10 weeks old) were cut open and fixed with 2.5% glutaraldehyde in 0.1 M cacodylate buffer (pH 7.4) overnight and processed for standard scanning electron microscopy. All samples were analysed on a Hitachi S-4800 Type II Field Emission Scanning Electron Microscope™.

[2] = test system: Cntnap2, Fmr1, and Shank3 mutant mice; test: Three-chamber social approach assay in monogenic mutant mice; conditions: Cntnap2 and Fmr1 (monogenic) mutant mice, IL-17a 50 ng/side bilaterally into S1DZ, 4 hours
Description: All experiments were performed according to Guide for the Care and Use of Laboratory Animals and were approved by the National Institutes of Health and the Committee on Animal Care at Massachusetts Institute of Technology. C57BL/6 were purchased from Taconic Biosciences for generating PBS and MIA offspring. Vgat-Cre (028862) were purchased from Jackson Laboratories and inbred. For monogenic experiments, C57BL/6, Cntnap2 (017482), Fmr1 (003025), and Shank3 (017688) mice were purchased from Jackson Laboratories and inbred after colonizing with SFB from donor mice. IL-17Ra^fl/fl and IL-17RaKO were previously described^24,25. All mice were males aged 2-5 months, unless otherwise specified.
as §1, with “hrs. […]” for “hrs.”

C[N+]1([O-])CCN(C2=Nc3cc(Cl)ccc3Nc3ccccc32)CC1 [CNO]
sociability in MIA Vgat-Cre mice (MIA offspring; Vgat-Cre MIA offspring without surgery, CNO 1.5 mg/kg i.p. or LPS): unaffected by CNO treatment

CN[C@H](CC(C)C)C(=O)N[C@H]1C(=O)N[C@@H](CC(N)=O)C(=O)N[C@H]2C(=O)N[C@H]3C(=O)N[C@H](C(=O)N[C@H](C(=O)O)c4cc(O)cc(O)c4-c4cc3ccc4O)[C@H](O)c3ccc(c(Cl)c3)Oc3cc2cc(c3O[C@@H]2O[C@H](CO)[C@@H](O)[C@H](O)[C@H]2O[C@H]2C[C@](C)(N)[C@H](O)[C@H](C)O2)Oc2ccc(cc2Cl)[C@H]1O [vancomycin, vancomycin hydrochloride]
LPS-induced reversal of the sociability phenotype after antibiotic pretreatment (MIA offspring; LPS-injected MIA offspring, antibiotic by oral gavage every two days from 21 days before test): prevented the reversal of the sociability phenotype | LPS-induced increase in plasma and brain IL-17a and plasma IFNγ after antibiotic pretreatment (IL-17a, IFNγ, IL-6, TNFα): suppressed the systemic increase in plasma and brain levels of IL-17a as well as the plasma levels of IFNγ | intestinal colonization by SFB (qPCR of fecal samples) [1]: severely reduced

B1: recombinant IL-17a: recombinant IL-17a protein (7956-ML/CF, R&D) administered bilaterally into S1DZ (protein)
chain: AAIIPQSSACPNTEAKDFLQNVKVNLKVFNSLGAKVSSRRPSDYLNRSTSPWTLHRNEDPDRYPSVIWEAQCRHQRCVNAEGKLDHHMNSVLIQQEILVLKREPESCPFTFRVEKMLVGVGCTCVASIVRQAA
sociability phenotype after IL-17a into S1DZ (MIA offspring): sufficient to promote sociability in monogenic mutant mice as well as in MIA offspring; also recorded: sufficient to rescue the sociability phenotypes of not only MIA offspring | sociability phenotype after IL-17a into S1DZ (MIA offspring; listed as IL-17a): sufficient to rescue sociability deficits in MIA offspring; also recorded: rescues sociability deficits in both MIA offspring and monogenic mutant mice | sociability phenotype after IL-17a into S1DZ (MIA offspring; listed as exogenous IL-17a): rescued sociability deficits | sociability phenotype after IL-17a into S1DZ (MIA offspring; listed as recombinant IL-17a protein): sufficient to rescue the sociability phenotype of MIA offspring | sociability phenotype after IL-17a into S1DZ [2]: sufficient to promote sociability in monogenic mutant mice | sociability phenotype after IL-17a into S1DZ ([2]; listed as IL-17a): rescues sociability deficits in both MIA offspring and monogenic mutant mice
